Here are results for 3 molecules from patent US11844843 (DYNE THERAPEUTICS, dated 2023).

Positions count from the first letter of the chain named. Names and notes keep the numbering of the source.

The target of assay [1] is T1, recombinant cynomolgus monkey (Macaca fascicularis) TfR1 (cynomolgus monkey (Macaca fascicularis), UniProt Q5RDH6 87-760 (Pongo abelii entry), limits assumed).
T1 construct: Recombinant protein; also called cTfR1; cyTfR1
T1 chain: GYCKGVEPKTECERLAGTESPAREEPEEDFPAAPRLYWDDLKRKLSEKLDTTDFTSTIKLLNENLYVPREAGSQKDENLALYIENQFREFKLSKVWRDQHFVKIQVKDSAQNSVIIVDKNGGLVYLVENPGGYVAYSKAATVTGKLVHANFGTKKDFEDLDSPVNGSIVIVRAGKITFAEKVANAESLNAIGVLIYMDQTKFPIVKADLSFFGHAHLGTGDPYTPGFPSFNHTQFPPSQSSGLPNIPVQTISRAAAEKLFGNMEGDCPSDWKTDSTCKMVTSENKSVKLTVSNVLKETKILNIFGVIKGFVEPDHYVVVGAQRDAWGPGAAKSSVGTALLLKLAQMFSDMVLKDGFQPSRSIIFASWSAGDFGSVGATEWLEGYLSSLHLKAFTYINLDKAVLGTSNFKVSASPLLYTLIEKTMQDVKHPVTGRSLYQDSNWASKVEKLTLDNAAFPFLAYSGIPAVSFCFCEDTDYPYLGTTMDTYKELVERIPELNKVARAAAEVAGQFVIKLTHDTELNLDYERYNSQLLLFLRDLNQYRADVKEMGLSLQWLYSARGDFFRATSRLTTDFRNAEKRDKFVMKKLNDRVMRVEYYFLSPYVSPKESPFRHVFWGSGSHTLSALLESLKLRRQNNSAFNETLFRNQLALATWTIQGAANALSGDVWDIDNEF
Kind of assay: ELISA on cTfR1, unconjugated Fab, % normalized RFUs. For orientation: ELISA stands for enzyme-linked immunosorbent assay.

Assay [2] concerns the target T2, recombinant human TfR1 (transferrin receptor protein 1) (human, UniProt P02786 89-760).
T2 construct: Recombinant protein in SPR and ELISA; they were assigned to this molecule; also called hTfR1; huTfR1
Kind of assay: Biacore, d25; TfR1 species not stated. For orientation: SPR reads the build-up and loss of mass on a sensor chip optically.

Assay [3] concerns the target T1, recombinant cynomolgus monkey (Macaca …). The assay can be described thus: ELISA on plate-coated recombinant cTfR1, fluorescent anti-(H+L) IgG-A488 detection, % normalized RFUs. Here is the method:
(§1) To measure binding of humanized anti-TfR antibodies to TfR1, ELISAs were conducted. High binding, black, flat bottom, 96 well plates (Corning #3925) were first coated with 100 μL/well of recombinant huTfR1 at 1 μg/mL in PBS and incubated at 4° C. overnight. Wells were emptied and residual liquid was removed. Blocking was conducted by adding 200 μL of 1% BSA (w/w) in PBS to each well. Blocking was allowed to proceed for 2 hours at room temperature on a shaker at 30) rpm. After blocking, liquid was removed and wells were washed three times with 300 μL of TBST. Anti-TfR1 antibodies were then added in 0.5% BSA/TBST in triplicate in an 8 point serial dilution (dilution range 5 μg/mL-5 ng/mL). A positive control and isotype controls were also included on the ELISA plate. The plate was incubated at room temperature on an orbital shaker for 60 minutes at 300 rpm, and the plate was washed three times with 300 μL of TBST. Anti-(H+L)IgG-A488 (1:500) (Invitrogen #A11013) was diluted in 0.5% BSA in TBST, and 100 μL was added to each well. The plate was then allowed to incubate at room temperature for 60 minutes at 300 rpm on orbital shaker. The liquid was removed and the plate was washed four times with 300 μL of TBST. […] Data was recorded and analyzed for $EC50$. […]

Assay [4] addresses T2, recombinant human TfR1 (transferrin …). Kind of assay: kinetic analysis (Biacore), Table 7; TfR1 species not stated.
For assay [5] the target is unchanged. Kind of assay: ELISA on plate-coated recombinant hTfR1, fluorescent anti-(H+L) IgG-A488 detection, % normalized RFUs. Here is the method: as §1
For assay [6] the target is unchanged. The assay can be described thus: Biacore, d0; TfR1 species not stated.
Assay [7] shares this target. Kind of assay: ELISA on hTfR1, unconjugated Fab, % normalized RFUs.
Assay [8] deals with T1, recombinant cynomolgus monkey (Macaca …). Kind of assay: ELISA, recombinant TfR1 coated, unconjugated Fab (row 'Fab binding affinity ELISA').
The target in assay [9] is T2, recombinant human TfR1 (transferrin …). Described as above.
Assay [10] addresses T1, recombinant cynomolgus monkey (Macaca …). The assay can be described thus: Table 14, unconjugated Fab, d0; method not named (values equal ELISA row of Table 13).
The target of assay [11] is T2, recombinant human TfR1 (transferrin …). The description is as above.
In assay [12] the target is T1, recombinant cynomolgus monkey (Macaca …). The assay can be described thus: Table 14, unconjugated Fab, d9 (after 9 days at 40 C); method not named.
Assay [13] concerns the target T2, recombinant human TfR1 (transferrin …). Described as above.
For assay [14] the target is unchanged. Kind of assay: ELISA on plate-coated recombinant hTfR1, fluorescent anti-(H+L) IgG-A488 detection, % normalized RFUs. Here is the method: To measure binding of humanized anti-TfR antibodies to TfR1, ELISAs were conducted. High binding, black, flat bottom, 96 well plates (Corning #3925) were first coated with 100 μL/well of recombinant huTfR1 at 1 μg/mL in PBS and incubated at 4° C. overnight. Wells were emptied and residual liquid was removed. Blocking was conducted by adding 200 μL of 1% BSA (w/w) in PBS to each well. Blocking was allowed to proceed for 2 hours at room temperature on a shaker at 30) rpm. After blocking, liquid was removed and wells were washed three times with 300 μL of TBST. Anti-TfR1 antibodies were then added in 0.5% BSA/TBST in triplicate in an 8 point serial dilution (dilution range 5 μg/mL-5 ng/mL). A positive control and isotype controls were also included on the ELISA plate. The plate was incubated at room temperature on an orbital shaker for 60 minutes at 300 rpm, and the plate was washed three times with 300 μL of TBST. Anti-(H+L)IgG-A488 (1:500) (Invitrogen #A11013) was diluted in 0.5% BSA in TBST, and 100 μL was added to each well. The plate was then allowed to incubate at room temperature for 60 minutes at 300 rpm on orbital shaker. The liquid was removed and the plate was washed four times with 300 μL of TBST. Absorbance was then measured at 495 nm excitation and […] (with a 15 nm bandwidth) on a plate reader. Data was recorded and analyzed for $EC50$. […] ELISA measurements were conducted using cynomolgus monkey (Macaca fascicularis) TfR1 (cTfR1) according to the same protocol described above for hTfR1, and results are shown in FIGS. 9B, 9D, and 9F.
This is another data set of the same source.

The target is the same in assay [15]. The assay can be described thus: ELISA on hTfR1, unconjugated Fab, % normalized RFUs. This is another data set of the same source.
The target in assay [16] is T1, recombinant cynomolgus monkey (Macaca …). The assay can be described thus: ELISA on plate-coated recombinant cTfR1 (target per paragraph 617), fluorescent anti-(H+L) IgG-A488 detection, % normalized RFUs. Here is the method:
To measure binding of humanized anti-TfR antibodies to TfR1, ELISAs were conducted. High binding, black, flat bottom, 96 well plates (Corning #3925) were first coated with 100 μL/well of recombinant huTfR1 at 1 μg/mL in PBS and incubated at 4° C. overnight. Wells were emptied and residual liquid was removed. Blocking was conducted by adding 200 μL of 1% BSA (w/w) in PBS to each well. Blocking was allowed to proceed for 2 hours at room temperature on a shaker at 30) rpm. After blocking, liquid was removed and wells were washed three times with 300 μL of TBST. Anti-TfR1 antibodies were then added in 0.5% BSA/TBST in triplicate in an 8 point serial dilution (dilution range 5 μg/mL-5 ng/mL). A positive control and isotype controls were also included on the ELISA plate. The plate was incubated at room temperature on an orbital shaker for 60 minutes at 300 rpm, and the plate was washed three times with 300 μL of TBST. Anti-(H+L)IgG-A488 (1:500) (Invitrogen #A11013) was diluted in 0.5% BSA in TBST, and 100 μL was added to each well. The plate was then allowed to incubate at room temperature for 60 minutes at 300 rpm on orbital shaker. The liquid was removed and the plate was washed four times with 300 μL of TBST. Absorbance was then measured at 495 nm excitation and […] (with a 15 nm bandwidth) on a plate reader. Data was recorded and analyzed for $EC50$. […]

The target is the same in assay [17]. The assay can be described thus: ELISA on cTfR1, unconjugated Fab, % normalized RFUs.

B1: humanized anti-TfR Fab 3M12 VH3/Vκ2 (Fab, V domains shown)
VH: QVQLQESGPGLVKPSQTLSLTCSVTGYSITSGYYWNWIRQPPGKGLEWMGYITFDGANNYNPSLKNRVSISRDTSKNQFSLKLSSVTAEDTATYYCTRSSYDYDVLDYWGQGTTVTVSS
VL: DIQMTQSPSSLSASVGDRVTITCRASQDISNFLNWYQQKPGQPVKLLIYYTSRLHSGVPSRFSGSGSGTDFTLTISSLQPEDFATYFCQQGHTLPYTFGQGTKLEIKR
notes: also called 3M12 (VH3/Vk2)
As usually defined, the EC50 is the concentration needed to bring the measured effect to its halfway point. As a reminder, the Kd is the concentration at which binding is half-saturated. In general, koff refers to a measure of how fast the partners let go of each other. For orientation: kon means a measure of how fast the partners come together. With B1, the EC50 is 25.5 nM in assay [1]; 25.5 nM in [3]; 7.2 nM in assay [5]; 7.2 nM in [7]; 9.9 nM in assay [8]; 0.8 nM in assay [9]. Besides, the Kd in assay [2] is 0.567 nM; in [4], 0.395 nM; in assay [6] it was 0.395 nM. Moreover, in [4], the koff came out at 0.000104 s⁻¹. Further, the kon in assay [4] worked out at 264000 M⁻¹ s⁻¹. For the same molecule, the Binding affinity in assay [10] turned out to be 9.9 nM; in [11] it was 0.8 nM; in assay [12], 19.5 nM; in assay [13] it was 0.98 nM.

B2: humanized anti-TfR Fab 5H12 VH5 (C33Y)/Vκ4 (Fab, V domains shown)
VH: QVQLVQSGAEVKKPGASVKVSCKASGYSFTDYYINWVRQAPGQGLEWMGWIYPGSGNTRYSERFKGRVTITRDTSASTAYMELSSLRSEDTAVYYCAREDYYPYHGMDYWGQGTLVTVSS
VL: DIVMTQSPDSLAVSLGERATINCRASESVDGYDNSFMHWYQQKPGQPPKLLIFRASNLESGVPDRFSGSGSGTDFTLTISSLQAEDVAVYYCQQSSEDPWTFGQGTKLEIKR
notes: also called 5H12 (VH5-C33Y/Vk4)
With B2, the EC50 in assay [14] was more than 100 nM; in assay [15] it was more than 100 nM; in [16], 3.4 nM; in assay [17] it was 3.4 nM; in assay [8], 3.3 nM; in assay [9] it was 2.8 nM. In addition, the Kd amounted to 1.33 nM in assay [2], 0.626 nM in assay [4] and 0.626 nM in assay [6]. In addition, the koff in assay [4] was found to be 0.000117 s⁻¹. Also, the kon in [4] was 186000 M⁻¹ s⁻¹. In addition, the Binding affinity came to 3.3 nM in assay [10], 2.8 nM in [11], 0.26 nM in assay [12] and 1730 nM in assay [13].

B3: humanized anti-TfR Fab 5H12 VH5 (C33Y)/Vκ3 (Fab, V domains shown)
VH: B2 VH
VL: B2 VL with M4L, G72R
notes: also called 5H12 (VH5-C33Y/Vk3)
Consider B3, for which the EC50 is more than 100 nM in [14]; more than 100 nM in [15]; 2 nM in assay [16]; 2 nM in [17]; 2.1 nM in assay [8]; 6.3 nM in assay [9]. The Kd in assay [2] is 1.07 nM; in assay [4], 0.627 nM; in assay [6], 0.627 nM. The koff in [4] turned out to be 0.000122 s⁻¹. Moreover, the kon in assay [4] turned out to be 195000 M⁻¹ s⁻¹. Also, the Binding affinity in assay [10] is 2.1 nM; in assay [11] it was 6.3 nM; in [12], 0.69 nM; in assay [13] it was 71.9 nM.
